This data set deals with MutS (Cy3-labeled) (Escherichia coli). Description: smFRET (TIRF). The settings on record: GT mismatch, amino-dT, smTIRF FRET on surface-immobilized plasmids, imaging buffer and temperature not in material, dCas9 RNP assembled in 30 mM HEPES, 150 mM KCl, pH 7.5, MutS with …; for binding signal (fold lower k-1 vs RC): ATP.

The source of these data is article PMC12205362.

Turning to “pUC19HL_MutS GT mismatch, negatively supercoiled (-)SC”, the binding signal (fold lower k-1 vs RC) (k1 ~1.3x higher than RC, negatively supercoiled by gyrase, average sigma -0.07) was 1.3. The binding signal (negatively supercoiled by gyrase, average sigma -0.07) is 0.075 s-1 (koff).
For the substance “pUC19HL_MutS GT mismatch, positively supercoiled (+)SC”, the binding signal (fold lower k-1 vs RC) (k1 similar to RC, positively supercoiled by 9N reverse gyrase, average sigma +0.03) came out at 1.3. Further, the binding signal (positively supercoiled by 9N reverse gyrase, average sigma +0.03) was 0.107 s-1 (koff).
With “pUC19HL_MutS GT mismatch, relaxed circular (RC)”, for the setting “covalently closed relaxed circle”, the binding signal was 0.204 s-1 (koff).
